This data set can be described thus: protein stability index of a GFP-peptide fusion (GPS, HEK-293T) (PSI 1-6); higher = more stable. Conditions: c terminus: a fixed tail appended.

± gives the standard deviation.
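Also: 24-mer peptide tiles fused after GFP, lentivirally expressed, FACS-sorted into six equal bins by GFP/DsRed ratio, decoded by Illumina sequencing, PSI is the read-weighted mean bin number.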

LRCRKEFYQLVWSALPFITYLENK [POP5]: the protein stability index reads like this: (treatment: DMSO) 2.41 ± 0.9; (treatment: MLN4924 1 uM, 8 h) 2.07 ± 0.17.

For the sequence LREAVPGILRARRGEGIQAPSFSS [SOAT2], the protein stability index runs as follows: (treatment: DMSO) 3.4 ± 0.29; (treatment: MLN4924 1 uM, 8 h) 3.44 ± 0.35.

Consider LREKVEFLRSLRQMKQKVQSLYQE [NFE2L1], for which the protein stability index by setting is: (treatment: DMSO) 2.09 ± 0.58; (treatment: MLN4924 1 uM, 8 h) 2.82 ± 0.52.

For LRFLLDQVQLGLRCCGAASYQDWQ [TSPAN10], the protein stability index amounted to 3.05 ± 0.49 (treatment: DMSO) and 3.22 ± 0.49 (treatment: MLN4924 1 uM, 8 h).

With LRSRASRCRPRSLIDYKSYMDTKL [FAM189A2], the protein stability index reads like this: (treatment: DMSO) 2.3 ± 0.28; (treatment: MLN4924 1 uM, 8 h) 2.19 ± 0.23.

With LSALKHAVLGLYLLVFLILVGIFI [SCARA5], the protein stability index runs as follows: (treatment: DMSO) 2.16 ± 0.63; (treatment: MLN4924 1 uM, 8 h) 2.08 ± 0.14.

On to LSFSGSDVQNKLKESAQCVGDEFL [SNX8], for which the protein stability index reads like this: (treatment: DMSO) 4.48 ± 0.2; (treatment: MLN4924 1 uM, 8 h) 4.49 ± 0.21.

For the sequence LSGVQRVESVFFGGGTPSLASPHT [RSAD1], the protein stability index reads like this: (treatment: DMSO) 2.98 ± 0.27; (treatment: MLN4924 1 uM, 8 h) 3.07 ± 0.25.

On to LSWYFLLCVNYFFYGETVADYFAT [CDS1], for which the protein stability index is, setting by setting: (treatment: DMSO) 3.11 ± 0.46; (treatment: MLN4924 1 uM, 8 h) 3.51 ± 0.53.

LSYNLYDLLRNTHFRGVSLNLTRK [DYRK1B]: the protein stability index is, setting by setting: (treatment: DMSO) 2.28 ± 0.36; (treatment: MLN4924 1 uM, 8 h) 2.15 ± 0.09.

On to LTFGPDSRHCPQLPPPCAALWCSG [ADAMTS4], for which the protein stability index by setting is: (treatment: DMSO) 2.29 ± 0.36; (treatment: MLN4924 1 uM, 8 h) 2.46 ± 0.32.

On to LTTEKQNFLLFDMTTHPLTNNNIK [GOLPH3], for which the protein stability index amounted to 2.98 ± 0.18 (treatment: DMSO) and 3.09 ± 0.17 (treatment: MLN4924 1 uM, 8 h).

Consider LVCHVMMGNLVMFRKDSVLNILIQ [INTS3], for which the protein stability index by setting is: (treatment: DMSO) 3.25 ± 0.47; (treatment: MLN4924 1 uM, 8 h) 3.33 ± 0.51.

Turning to LVDFCNKPILLHQVEALAAAGVDH [GMPPB], the protein stability index stood at 2.65 ± 0.31 (treatment: DMSO) and 2.95 ± 0.35 (treatment: MLN4924 1 uM, 8 h).

Regarding LVLKIMSGTFAPISDRYSPELRQL [NEK8], the protein stability index stood at 2.9 ± 0.6 (treatment: DMSO) and 2.69 ± 0.5 (treatment: MLN4924 1 uM, 8 h).

Take LVMPLEEKLTKITRTGPSAWETKK [PCMTD2]: the protein stability index (treatment: DMSO) was 3.79 ± 0.21 and the protein stability index (treatment: MLN4924 1 uM, 8 h) came out at 3.75 ± 0.23.

For the sequence LVRETDELRRNHCFQDFKEEKPQE [ELOA2], the protein stability index is 4.28 ± 0.24 (treatment: DMSO) and 4.41 ± 0.28 (treatment: MLN4924 1 uM, 8 h).

For LWDTSGQGRFCTIFRSYSRGAQGI [RAB40C], the protein stability index runs as follows: (treatment: DMSO) 2.39 ± 0.41; (treatment: MLN4924 1 uM, 8 h) 2.31 ± 0.37.

On to LWELCHLWLRPEVHTKEQILELLV [ZNF396], for which the protein stability index reads like this: (treatment: DMSO) 2.22 ± 0.36; (treatment: MLN4924 1 uM, 8 h) 2.31 ± 0.072.

For the sequence LWLRPETHTKEQILELVVLEQFVA [ZNF24], the protein stability index by setting is: (treatment: DMSO) 2.26 ± 0.61; (treatment: MLN4924 1 uM, 8 h) 2.35 ± 0.45.

LYFLFADAMQLNDKWQGLCWPMMD [CMTM3]: the protein stability index reads like this: (treatment: DMSO) 3.07 ± 0.31; (treatment: MLN4924 1 uM, 8 h) 3.05 ± 0.47.

In turn, LYHNVEGFTDRREARKYASNLLKA [DVL3] showed a protein stability index (treatment: DMSO) of 3.39 ± 0.071 and a protein stability index (treatment: MLN4924 1 uM, 8 h) of 3.49 ± 0.22.

With LYVSLHRYDHGTFFPMGDEGASSQ [HDAC6], the protein stability index is, setting by setting: (treatment: DMSO) 2.17 ± 0.51; (treatment: MLN4924 1 uM, 8 h) 2.31 ± 0.28.

The sequence MAAQRNRSKESKDCSGLVLLCLFF [PCDHGA10] came in with a protein stability index (treatment: DMSO) of 2.29 ± 0.27 and a protein stability index (treatment: MLN4924 1 uM, 8 h) of 1.83 ± 0.32.

In the case of MAGCRGSLCCCCRWCCCCGERETR [CLCN6], the protein stability index is, setting by setting: (treatment: DMSO) 2.42 ± 0.28; (treatment: MLN4924 1 uM, 8 h) 2.98 ± 0.44.

MASDHREALLDRESENASLREKLR [LRRC45]: the protein stability index runs as follows: (treatment: DMSO) 5.15 ± 0.093; (treatment: MLN4924 1 uM, 8 h) 4.95 ± 0.16.

Sequence MDNNRNLDLDSIIDEVRTQYEEIA [KRT71] returned a protein stability index (treatment: DMSO) of 4.14 ± 0.26 and a protein stability index (treatment: MLN4924 1 uM, 8 h) of 4.13 ± 0.17.

Regarding MEEMQNKAVVFFVFYLWSAIEIFR [HACD3], the protein stability index runs as follows: (treatment: DMSO) 2.7; (treatment: MLN4924 1 uM, 8 h) 2.8 ± 0.63.

As for MENKKKDKDKSDDRMARPSGRSGH [CSNK1G3], the protein stability index runs as follows: (treatment: DMSO) 5.42 ± 0.34; (treatment: MLN4924 1 uM, 8 h) 5.31 ± 0.44.

With MGGTTSTRRVTFEADENENITVVK [CHCHD3], the protein stability index is, setting by setting: (treatment: DMSO) 4.95 ± 0.27; (treatment: MLN4924 1 uM, 8 h) 5.11 ± 0.21.

Regarding MIEDNKENKDHSLERGRASLIFSL [TPH1], the protein stability index came to 3.25 ± 0.36 (treatment: DMSO) and 3.36 ± 0.18 (treatment: MLN4924 1 uM, 8 h).

In the case of MIHRTRKQKYFYKGGLVWDENSSD [CLK3], the protein stability index (treatment: DMSO) stood at 3.06 ± 0.22 and the protein stability index (treatment: MLN4924 1 uM, 8 h) worked out at 3.06 ± 0.23.

Sequence MKEFSNQVVGQVNVEMDATPGIDL [KRT13] showed a protein stability index (treatment: DMSO) of 4.58 ± 0.16 and a protein stability index (treatment: MLN4924 1 uM, 8 h) of 4.44 ± 0.27.

As to MKEQDLMCIKLHGVSKVGLRKIID [KLHL13], the protein stability index is, setting by setting: (treatment: DMSO) 2.18 ± 0.53; (treatment: MLN4924 1 uM, 8 h) 2.15 ± 0.44.

Consider MKGFSFKEDTLLLIAEVMGEDIPE [C8orf76], for which the protein stability index came out at 2.09 ± 0.11 (treatment: DMSO) and 2.21 ± 0.24 (treatment: MLN4924 1 uM, 8 h).

Consider MKIKQDRASRTYELQNQLAACTRA [FSD1], for which the protein stability index (treatment: DMSO) stood at 3.52 ± 0.12 and the protein stability index (treatment: MLN4924 1 uM, 8 h) stood at 3.62 ± 0.38.

The record behind these values is the supplement of paper PMC10567573.
